Measured values as given in the supplement of paper PMC10065799, “High-throughput profiling of sequence recognition by tyrosine kinases and SH2 domains using bacterial peptide display” (eLife, 2023).

Assays:
[1] = target: Jak2 (UniProt O60674); assay: phosphorylation enrichment, bacterial display (enrichment ratio); higher = better substrate or ligand; peptides without Tyr show the background
[2] = target: MERTK (UniProt Q12866); assay: as above
[3] = test system: c-Abl (mouse); assay: as above
[4] = target: Hck (UniProt P08631); assay: as above
[5] = target: FGFR1 (UniProt P11362); assay: as above
FGFR1, sequence (P11362 whole entry, looked up): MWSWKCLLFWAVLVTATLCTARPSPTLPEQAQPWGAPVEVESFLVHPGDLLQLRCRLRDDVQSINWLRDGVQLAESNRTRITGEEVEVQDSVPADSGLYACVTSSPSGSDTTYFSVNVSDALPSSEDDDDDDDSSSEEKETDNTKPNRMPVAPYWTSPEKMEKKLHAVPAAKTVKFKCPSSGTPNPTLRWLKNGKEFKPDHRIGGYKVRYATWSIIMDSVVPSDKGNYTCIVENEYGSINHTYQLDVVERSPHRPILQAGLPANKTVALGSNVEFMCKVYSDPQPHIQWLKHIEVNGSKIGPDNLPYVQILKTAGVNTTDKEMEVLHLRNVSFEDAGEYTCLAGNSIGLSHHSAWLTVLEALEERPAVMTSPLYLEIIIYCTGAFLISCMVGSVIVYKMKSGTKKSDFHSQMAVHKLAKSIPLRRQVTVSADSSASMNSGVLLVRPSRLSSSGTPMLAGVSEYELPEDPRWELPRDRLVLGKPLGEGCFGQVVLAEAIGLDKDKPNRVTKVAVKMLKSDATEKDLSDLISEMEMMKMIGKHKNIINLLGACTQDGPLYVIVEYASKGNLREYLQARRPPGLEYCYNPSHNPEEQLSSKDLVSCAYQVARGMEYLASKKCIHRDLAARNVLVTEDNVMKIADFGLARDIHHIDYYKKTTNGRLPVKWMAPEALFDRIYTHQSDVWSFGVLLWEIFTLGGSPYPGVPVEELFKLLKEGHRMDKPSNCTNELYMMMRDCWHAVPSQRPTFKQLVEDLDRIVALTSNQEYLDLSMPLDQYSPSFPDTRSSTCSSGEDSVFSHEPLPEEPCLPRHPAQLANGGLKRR

[6] = target: Fyn (UniProt P06241); assay: as above
Fyn, sequence (P06241 whole entry, looked up): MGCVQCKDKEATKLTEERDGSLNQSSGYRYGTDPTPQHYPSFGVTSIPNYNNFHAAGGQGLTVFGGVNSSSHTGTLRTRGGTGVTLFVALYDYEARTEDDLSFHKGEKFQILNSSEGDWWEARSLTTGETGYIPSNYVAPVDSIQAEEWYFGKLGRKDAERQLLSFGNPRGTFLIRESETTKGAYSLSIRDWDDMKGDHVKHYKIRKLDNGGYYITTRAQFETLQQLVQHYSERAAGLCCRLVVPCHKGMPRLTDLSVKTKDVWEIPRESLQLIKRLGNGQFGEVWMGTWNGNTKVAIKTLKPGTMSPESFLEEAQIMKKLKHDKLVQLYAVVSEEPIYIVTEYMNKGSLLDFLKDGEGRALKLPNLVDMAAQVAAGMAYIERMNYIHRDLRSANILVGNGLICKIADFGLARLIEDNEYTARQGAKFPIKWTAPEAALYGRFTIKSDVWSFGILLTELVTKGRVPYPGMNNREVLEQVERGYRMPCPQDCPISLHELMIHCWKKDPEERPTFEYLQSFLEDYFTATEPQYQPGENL

[7] = test system: c-Src; assay: as above
[8] = test system: AncSZ; assay: as above
[9] = target: Fes (UniProt P07332); assay: as above
Fes, sequence (P07332 whole entry, looked up): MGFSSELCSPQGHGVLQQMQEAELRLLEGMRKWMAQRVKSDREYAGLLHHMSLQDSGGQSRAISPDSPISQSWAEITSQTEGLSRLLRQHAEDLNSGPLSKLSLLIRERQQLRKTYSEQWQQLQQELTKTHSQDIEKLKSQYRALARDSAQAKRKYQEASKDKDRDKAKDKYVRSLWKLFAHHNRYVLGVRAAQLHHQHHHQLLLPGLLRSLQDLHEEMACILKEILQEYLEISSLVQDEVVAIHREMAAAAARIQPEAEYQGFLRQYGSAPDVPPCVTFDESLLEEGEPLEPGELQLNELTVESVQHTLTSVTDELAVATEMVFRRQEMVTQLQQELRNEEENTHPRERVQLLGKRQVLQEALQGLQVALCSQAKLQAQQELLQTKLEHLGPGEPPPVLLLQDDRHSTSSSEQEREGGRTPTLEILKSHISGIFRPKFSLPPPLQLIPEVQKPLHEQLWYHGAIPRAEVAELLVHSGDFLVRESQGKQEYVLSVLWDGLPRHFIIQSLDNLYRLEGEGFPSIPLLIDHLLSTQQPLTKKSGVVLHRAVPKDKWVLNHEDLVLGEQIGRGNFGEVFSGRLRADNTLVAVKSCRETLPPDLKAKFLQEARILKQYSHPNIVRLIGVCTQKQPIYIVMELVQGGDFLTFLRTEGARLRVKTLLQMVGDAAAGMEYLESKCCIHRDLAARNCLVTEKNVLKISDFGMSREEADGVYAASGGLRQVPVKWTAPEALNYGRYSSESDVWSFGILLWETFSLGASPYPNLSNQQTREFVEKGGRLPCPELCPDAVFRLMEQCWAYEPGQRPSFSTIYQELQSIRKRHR

[10] = target: EPHB2 (UniProt P29323); assay: as above
EPHB2, sequence (P29323 whole entry, looked up): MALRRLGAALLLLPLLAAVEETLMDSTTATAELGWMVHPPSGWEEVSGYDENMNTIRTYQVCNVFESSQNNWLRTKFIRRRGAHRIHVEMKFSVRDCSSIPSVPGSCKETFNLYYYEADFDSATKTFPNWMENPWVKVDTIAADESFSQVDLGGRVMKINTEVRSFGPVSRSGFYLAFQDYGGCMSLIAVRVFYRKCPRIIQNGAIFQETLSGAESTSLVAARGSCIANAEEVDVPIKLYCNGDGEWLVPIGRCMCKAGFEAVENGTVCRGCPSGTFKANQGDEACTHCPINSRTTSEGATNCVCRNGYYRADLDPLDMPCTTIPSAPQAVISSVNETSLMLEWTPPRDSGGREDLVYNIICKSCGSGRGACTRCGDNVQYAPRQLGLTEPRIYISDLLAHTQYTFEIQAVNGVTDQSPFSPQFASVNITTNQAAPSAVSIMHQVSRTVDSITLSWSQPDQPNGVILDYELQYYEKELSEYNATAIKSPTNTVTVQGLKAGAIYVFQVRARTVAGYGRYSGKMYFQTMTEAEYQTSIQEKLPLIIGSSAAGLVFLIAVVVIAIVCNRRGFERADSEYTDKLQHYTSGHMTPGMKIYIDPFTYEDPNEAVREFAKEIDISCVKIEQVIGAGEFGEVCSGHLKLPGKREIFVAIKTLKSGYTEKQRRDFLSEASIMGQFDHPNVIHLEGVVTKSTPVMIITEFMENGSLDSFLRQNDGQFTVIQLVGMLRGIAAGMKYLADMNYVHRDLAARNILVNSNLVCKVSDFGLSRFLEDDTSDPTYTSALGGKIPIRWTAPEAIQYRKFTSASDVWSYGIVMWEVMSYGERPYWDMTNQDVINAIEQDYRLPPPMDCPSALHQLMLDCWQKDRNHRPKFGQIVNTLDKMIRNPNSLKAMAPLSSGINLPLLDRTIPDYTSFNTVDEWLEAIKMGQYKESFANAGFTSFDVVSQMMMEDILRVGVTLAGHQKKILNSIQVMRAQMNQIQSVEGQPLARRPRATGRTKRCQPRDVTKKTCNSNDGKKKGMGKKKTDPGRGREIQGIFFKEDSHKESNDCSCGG

[11] = test system: Fer (mouse); assay: as above
[12] = target: EPHB1 (UniProt P54762); assay: as above
[13] = target: FGFR3 (UniProt P22607); assay: as above
FGFR3, sequence (P22607 whole entry, looked up): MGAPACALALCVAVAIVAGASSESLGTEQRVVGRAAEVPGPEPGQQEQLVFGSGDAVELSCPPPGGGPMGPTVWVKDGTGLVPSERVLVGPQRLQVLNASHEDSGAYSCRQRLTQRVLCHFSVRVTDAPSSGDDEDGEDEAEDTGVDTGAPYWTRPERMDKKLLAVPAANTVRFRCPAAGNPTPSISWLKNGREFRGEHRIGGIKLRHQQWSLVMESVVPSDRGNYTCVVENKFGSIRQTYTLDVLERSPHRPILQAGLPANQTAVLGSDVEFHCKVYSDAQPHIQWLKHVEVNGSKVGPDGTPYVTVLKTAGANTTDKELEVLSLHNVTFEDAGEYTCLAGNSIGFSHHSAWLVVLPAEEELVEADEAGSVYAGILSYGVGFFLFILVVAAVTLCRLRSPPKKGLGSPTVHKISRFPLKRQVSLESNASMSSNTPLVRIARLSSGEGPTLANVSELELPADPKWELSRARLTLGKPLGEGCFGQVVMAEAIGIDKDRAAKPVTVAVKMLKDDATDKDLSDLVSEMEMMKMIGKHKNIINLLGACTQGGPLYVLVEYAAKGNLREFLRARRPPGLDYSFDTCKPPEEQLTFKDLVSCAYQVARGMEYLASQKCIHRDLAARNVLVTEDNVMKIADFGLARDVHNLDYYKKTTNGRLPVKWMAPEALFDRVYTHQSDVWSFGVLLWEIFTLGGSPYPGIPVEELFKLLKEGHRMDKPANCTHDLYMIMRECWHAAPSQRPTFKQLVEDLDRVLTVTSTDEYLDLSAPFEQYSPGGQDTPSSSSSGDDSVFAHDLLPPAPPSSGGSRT

[14] = target: Grb2 SH2 (UniProt P62993); assay: SH2 binding enrichment of the phosphorylated peptide, bacterial display (enrichment ratio); higher = better substrate or ligand; peptides without Tyr show the background
[15] = target: c-Src SH2; assay: as above
[16] = target: SHP2-C SH2; assay: as above
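Throughout, for SH2 binding enrichment of the phosphorylated peptide, bacterial display: peptide library displayed on the E. coli surface as eCPX fusions, selected cells deep-sequenced, score is each peptide's frequency after selection divided by its frequency in the input.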
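Throughout, for phosphorylation enrichment, bacterial display: 11-residue human phosphosite peptides and single-mutation variants displayed on the E. coli surface, counted by deep sequencing, each peptide's frequency after selection divided by its frequency in the unselected input library; frequency after pTyr selection over input frequency; kinase dosed for 20-30% of maximal phosphorylation in three min.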

MERTK, sequence (Q12866 whole entry, looked up): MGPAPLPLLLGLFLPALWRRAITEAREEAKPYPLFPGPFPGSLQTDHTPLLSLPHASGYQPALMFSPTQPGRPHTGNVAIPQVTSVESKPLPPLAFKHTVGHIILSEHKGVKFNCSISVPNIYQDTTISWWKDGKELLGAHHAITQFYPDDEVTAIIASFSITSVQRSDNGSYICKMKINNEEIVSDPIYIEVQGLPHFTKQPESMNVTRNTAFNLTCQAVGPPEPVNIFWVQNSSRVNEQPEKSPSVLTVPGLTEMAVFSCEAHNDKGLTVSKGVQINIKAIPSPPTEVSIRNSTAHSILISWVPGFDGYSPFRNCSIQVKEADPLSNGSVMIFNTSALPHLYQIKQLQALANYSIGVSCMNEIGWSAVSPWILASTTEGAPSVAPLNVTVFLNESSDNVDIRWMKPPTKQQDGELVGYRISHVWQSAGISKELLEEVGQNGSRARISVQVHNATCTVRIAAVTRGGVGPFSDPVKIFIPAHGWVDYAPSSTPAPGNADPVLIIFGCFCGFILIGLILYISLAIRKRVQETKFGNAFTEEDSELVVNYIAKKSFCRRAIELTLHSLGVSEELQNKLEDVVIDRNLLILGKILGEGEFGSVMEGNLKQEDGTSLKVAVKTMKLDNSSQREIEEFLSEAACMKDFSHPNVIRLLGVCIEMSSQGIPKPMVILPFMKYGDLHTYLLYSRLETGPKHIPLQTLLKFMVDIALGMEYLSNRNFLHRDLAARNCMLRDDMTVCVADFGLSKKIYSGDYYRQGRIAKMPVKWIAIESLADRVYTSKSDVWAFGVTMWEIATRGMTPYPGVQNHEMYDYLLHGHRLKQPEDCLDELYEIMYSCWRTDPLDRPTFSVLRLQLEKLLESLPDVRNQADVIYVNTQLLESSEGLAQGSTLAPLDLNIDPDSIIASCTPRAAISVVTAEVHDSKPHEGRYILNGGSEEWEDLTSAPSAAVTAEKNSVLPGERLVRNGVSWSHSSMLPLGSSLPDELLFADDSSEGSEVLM

| SH2 binding enrichment [14] | SH2 binding enrichment [15] | SH2 binding enrichment [16] | Sequence | phosphorylation enrichment [1] | phosphorylation enrichment [2] | phosphorylation enrichment [3] | phosphorylation enrichment [4] | phosphorylation enrichment [5] | phosphorylation enrichment [6] | phosphorylation enrichment [7] | phosphorylation enrichment [8] | phosphorylation enrichment [9] | phosphorylation enrichment [10] | phosphorylation enrichment [11] | phosphorylation enrichment [12] | phosphorylation enrichment [13] |
| --- | --- | --- | --- | --- | --- | --- | --- | --- | --- | --- | --- | --- | --- | --- | --- | --- |
| 0.991 | 0.897 | 0.684 | IFGVSYDEFRF [CFTR_Y512_YF] | 1.09 | 0.671 | 0.678 | 0.93 | 0.5 | 0.673 | 2.32 | 1.07 | 0.982 | 0.524 | 1.52 | 0.456 | 0.609 |
| 1.14 | 0.873 | 1.16 | IFHLSYHHNCE [PDE6B_Y227_L228H_YF] | 0.831 | 0.381 | 0.588 | 0.478 | 0.499 | 0.522 | 0.455 | 1.15 | 1.18 | 0.635 | 0.517 | 0.567 | 0.694 |
| 0.703 | 0.419 | 0.449 | IGLHAYGDQFR [IDH1_Y135_R132L_YF] | 0.519 | 0.4 | 0.51 | 0.473 | 0.423 | 0.502 | 0.39 | 0.687 | 0.799 | 0.491 | 0.51 | 0.413 | 0.594 |
| 1.43 | 0.993 | 1.23 | IGMLIYFARKA [VCAM1_Y718_I716L] | 0.703 | 0.496 | 0.508 | 0.536 | 0.461 | 0.453 | 0.424 | 0.934 | 0.846 | 0.481 | 0.425 | 0.518 | 0.456 |
| 1.44 | 0.726 | 0.955 | IHFAIYLLKYS [ARMC9_Y107] | 0.917 | 0.425 | 0.753 | 0.463 | 0.368 | 0.516 | 0.446 | 1.09 | 1.16 | 0.59 | 0.486 | 0.486 | 0.686 |
| 0.751 | 0.728 | 0.812 | IINENYDYLKG [NUP98_Y1664] | 0.803 | 0.491 | 0.649 | 1.07 | 0.535 | 0.406 | 0.469 | 0.846 | 0.871 | 0.707 | 0.401 | 0.657 | 0.518 |
| 0.8 | 1.11 | 0.803 | IITDYYVDMKF [MPP4_Y567_V562I] | 2.52 | 1.22 | 0.856 | 1.17 | 7.4 | 1.01 | 0.98 | 1.87 | 1.46 | 2.11 | 1.38 | 3.56 | 5.13 |
| 0.932 | 0.619 | 0.784 | IKGNMYFENSF [EGFR_Y112_R108K_YF] | 1.02 | 0.539 | 0.897 | 0.397 | 0.516 | 0.533 | 0.657 | 0.991 | 0.951 | 0.446 | 0.471 | 0.589 | 0.677 |
| 0.908 | 0.573 | 0.878 | IKNSGYISQFL [EIF2AK3_Y585_R588Q_YF] | 0.404 | 0.327 | 0.625 | 0.458 | 0.445 | 0.531 | 0.385 | 0.531 | 0.579 | 0.458 | 0.377 | 0.434 | 0.474 |
| 0.66 | 0.424 | 0.633 | ILDEAYVMASM [EGFR_Y764_V769M] | 0.965 | 0.447 | 0.746 | 0.528 | 0.525 | 0.539 | 0.643 | 1.22 | 1.19 | 0.553 | 0.557 | 0.461 | 0.62 |
| 0.782 | 0.484 | 0.938 | ILGLEYSLRVP [HELZ2_Y1304] | 1.05 | 0.431 | 0.753 | 0.567 | 0.573 | 0.515 | 0.947 | 1.03 | 1.22 | 0.733 | 0.48 | 0.49 | 0.637 |
| 0.729 | 0.428 | 0.362 | ILTYKYLQKPM [KIT_Y547] | 0.801 | 0.487 | 0.654 | 0.458 | 0.396 | 0.41 | 0.521 | 0.666 | 1.15 | 0.591 | 0.495 | 0.686 | 0.518 |
| 0.76 | 0.572 | 0.581 | INVTIYGKTFR [EFHC1_Y177_I174V] | 1.1 | 0.644 | 0.868 | 0.609 | 0.539 | 0.547 | 0.641 | 1.18 | 1.29 | 0.588 | 0.625 | 0.631 | 0.756 |
| 1.01 | 0.58 | 0.838 | IRFSDYVEVAD [PHACTR1_Y525] | 1.01 | 0.434 | 0.755 | 0.519 | 1.88 | 0.538 | 0.448 | 1.41 | 1.01 | 0.977 | 0.431 | 1.42 | 1.58 |
| 0.628 | 0.537 | 0.486 | IRNRDYDDIDD [TTYH2_Y424_T419I] | 0.676 | 0.541 | 0.649 | 0.515 | 0.7 | 0.594 | 0.491 | 1.07 | 0.887 | 0.575 | 0.494 | 0.466 | 0.676 |
| 0.845 | 0.515 | 0.72 | ITLPIYTKESE [ANK2_Y1455] | 1.11 | 1.75 | 0.848 | 0.907 | 0.722 | 0.88 | 0.974 | 0.961 | 1.19 | 0.499 | 0.485 | 0.641 | 0.76 |
| 1.78 | 1.27 | 1.24 | ITNVLYHVVGW [GBA_Y412_L410V] | 1.87 | 6.81 | 4.13 | 4.59 | 6.43 | 3.01 | 3.13 | 1.06 | 1.25 | 1.32 | 1.82 | 2.31 | 5.06 |
| 1.08 | 0.498 | 0.878 | ITVPAYFNDSQ [HSPA9_Y196] | 1.02 | 0.456 | 0.785 | 0.528 | 0.581 | 0.553 | 0.536 | 0.895 | 1.06 | 0.491 | 0.54 | 0.473 | 0.672 |
| 0.918 | 0.897 | 0.955 | IVFTSYFLTIL [TAS2R16_Y239] | 1.76 | 0.476 | 1.05 | 0.633 | 0.641 | 0.578 | 0.514 | 1.45 | 1.89 | 0.709 | 0.511 | 0.676 | 0.976 |

More lines, now with the values behind:

| Sequence | SH2 binding enrichment [14] | SH2 binding enrichment [15] | SH2 binding enrichment [16] | phosphorylation enrichment [1] | phosphorylation enrichment [2] | phosphorylation enrichment [3] | phosphorylation enrichment [4] | phosphorylation enrichment [5] | phosphorylation enrichment [6] | phosphorylation enrichment [7] | phosphorylation enrichment [8] | phosphorylation enrichment [9] | phosphorylation enrichment [10] | phosphorylation enrichment [11] | phosphorylation enrichment [12] | phosphorylation enrichment [13] |
| --- | --- | --- | --- | --- | --- | --- | --- | --- | --- | --- | --- | --- | --- | --- | --- | --- |
| IAAEYYDNLPH [DEGS1_Y284] | 0.88 | 1.13 | 0.542 | 0.98 | 0.917 | 0.808 | 2.42 | 7.81 | 0.613 | 0.782 | 1.75 | 1.02 | 0.813 | 0.874 | 0.797 | 5.34 |
| IALSKYGRVKR [FGF6_Y186] | 0.711 | 0.501 | 0.447 | 0.57 | 0.438 | 0.552 | 0.412 | 0.359 | 0.358 | 0.463 | 0.61 | 0.564 | 0.424 | 0.372 | 0.32 | 0.373 |
| IDQDKYAVHFI [FLNA_Y2388_R2391H] | 0.711 | 0.491 | 0.607 | 0.801 | 0.388 | 0.734 | 0.467 | 0.468 | 0.396 | 0.433 | 0.886 | 0.945 | 0.547 | 0.625 | 0.483 | 0.61 |
| IENKPYGMSDP [RET_Y1062_L1061P] | 0.702 | 0.401 | 0.648 | 0.869 | 0.41 | 0.549 | 0.458 | 0.504 | 0.41 | 0.414 | 0.761 | 0.861 | 0.508 | 0.483 | 0.55 | 0.599 |
| IGEGTYGQVFK [CDK13_Y716_YF] | 0.774 | 0.426 | 0.808 | 0.569 | 0.428 | 0.566 | 8.97 | 0.324 | 10.8 | 7.69 | 0.456 | 0.665 | 1.18 | 0.636 | 0.62 | 0.402 |
| IGMIIYFARKA [VCAM1_Y718] | 2.08 | 1.03 | 1.43 | 0.88 | 0.374 | 0.734 | 1.09 | 0.515 | 0.481 | 0.449 | 0.9 | 0.957 | 2.23 | 0.417 | 0.487 | 0.72 |
| IKRIAYEFVEM [ADA_Y84] | 0.729 | 0.973 | 0.691 | 0.701 | 0.388 | 0.599 | 0.414 | 0.564 | 0.438 | 0.383 | 0.85 | 0.837 | 0.478 | 2.96 | 0.387 | 0.58 |
| IQTDGYRAPEA [UHMK1_Y197] | 0.763 | 0.505 | 0.727 | 1.25 | 0.491 | 0.725 | 0.717 | 0.447 | 0.428 | 0.398 | 0.601 | 0.829 | 0.496 | 0.461 | 0.782 | 0.382 |
| IRFPPYTDWNQ [ALDH3B2_Y365_H361R_YF] | 0.886 | 0.768 | 0.748 | 0.555 | 0.421 | 0.45 | 0.439 | 0.54 | 0.395 | 0.328 | 0.741 | 0.739 | 0.392 | 0.53 | 0.396 | 0.493 |
| IRKTEYPFSSE [ATP2C1_Y452_A450T] | 0.928 | 0.587 | 0.807 | 0.599 | 0.348 | 0.549 | 0.405 | 0.466 | 0.401 | 0.428 | 0.582 | 0.837 | 0.397 | 0.339 | 0.426 | 0.449 |
| IRTIDYRYTVW [IDS_Y497] | 1.04 | 0.985 | 1.31 | 0.929 | 0.422 | 0.695 | 0.535 | 0.554 | 0.493 | 0.398 | 1.15 | 1.16 | 0.566 | 0.57 | 0.666 | 0.732 |
| ISIFYYAKGQP [MPZ_Y82_H81Y] | 0.78 | 0.409 | 0.656 | 1.36 | 0.504 | 1.19 | 0.429 | 0.563 | 0.52 | 0.649 | 1.38 | 1.72 | 0.61 | 0.496 | 0.532 | 0.674 |
| ISSLLYELLEE [TRPC6_Y896_R895L] | 1.04 | 0.576 | 0.619 | 1.21 | 6.1 | 1.31 | 3.25 | 0.953 | 2.14 | 3.33 | 1.94 | 1.94 | 4.5 | 7.37 | 7.24 | 1.35 |
| ITNLLYHVVGG [GBA_Y412_W417G] | 1.07 | 0.953 | 1.12 | 2.67 | 7.37 | 1.12 | 5.76 | 6.43 | 5.17 | 3.81 | 1.18 | 1.12 | 3.36 | 1.32 | 5.68 | 5.48 |
